Test results taken from PMC9166773, “Latrophilin-2 is a novel receptor of LRG1 that rescues vascular and neurological abnormalities and restores diabetic erectile function” (Experimental & Molecular Medicine, 2022).

T1: LPHN2 Lec-Olf domains (F26-P394) (UniProt O95490 26-394)
T1 construct: LPHN2 (ADGRL2) lectin and olfactomedin-like domains, residues F26-P394; Both Fc-tagged and tag-free forms were made; source: Expi293F, purified (protein A resin; tag-free form by on-resin thrombin digestion; Superdex 200)
T1 sequence (looked up): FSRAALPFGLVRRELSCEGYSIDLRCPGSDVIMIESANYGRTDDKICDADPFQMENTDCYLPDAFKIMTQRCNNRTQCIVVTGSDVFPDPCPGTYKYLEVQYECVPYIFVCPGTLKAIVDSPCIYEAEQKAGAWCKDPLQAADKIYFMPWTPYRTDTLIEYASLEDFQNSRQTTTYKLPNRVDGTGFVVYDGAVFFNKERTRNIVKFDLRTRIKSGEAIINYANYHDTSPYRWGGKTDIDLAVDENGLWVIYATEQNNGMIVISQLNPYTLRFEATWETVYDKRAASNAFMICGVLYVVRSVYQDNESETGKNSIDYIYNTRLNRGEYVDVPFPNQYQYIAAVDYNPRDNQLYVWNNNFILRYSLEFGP

B1: LPHN2 Olf domain (V135-P394) (domain or fragment, UniProt O95490 135-394, looked up)
chain: VCPGTLKAIVDSPCIYEAEQKAGAWCKDPLQAADKIYFMPWTPYRTDTLIEYASLEDFQNSRQTTTYKLPNRVDGTGFVVYDGAVFFNKERTRNIVKFDLRTRIKSGEAIINYANYHDTSPYRWGGKTDIDLAVDENGLWVIYATEQNNGMIVISQLNPYTLRFEATWETVYDKRAASNAFMICGVLYVVRSVYQDNESETGKNSIDYIYNTRLNRGEYVDVPFPNQYQYIAAVDYNPRDNQLYVWNNNFILRYSLEFGP
notes: LPHN2 (ADGRL2) olfactomedin-like domain, residues V135-P394; Both Fc-tagged and tag-free forms were made; also called olfactomedin-like domain; source: Expi293F, purified (protein A resin; tag-free form by on-resin thrombin digestion; Superdex 200)
B2: Leucine-rich alpha-2-glycoprotein 1 (LRG1), recombinant tag-free human LRG1 (ligand, UniProt P02750 36-347, looked up)
chain: VTLSPKDCQVFRSDHGSSISCQPPAEIPGYLPADTVHLAVEFFNLTHLPANLLQGASKLQELHLSSNGLESLSPEFLRPVPQLRVLDLTRNALTGLPPGLFQASATLDTLVLKENQLEVLEVSWLHGLKALGHLDLSGNRLRKLPPGLLANFTLLRTLDLGENQLETLPPDLLRGPLQLERLHLEGNKLQVLGKDLLLPQPDLRYLFLNGNKLARVAAGAFQGLRQLDMLDLSNNSLASVPEGLWASLGQPNWDMRDGFDISGNPWICDQNLSDLYRWLQAQKDKMFSQNDTRCAGPEAVKGQTLLAVAKSQ
notes: human LRG1, residues V36-Q347; In the TriCEPS capture LRG1 was coupled to the TriCEPS reagent; Residues of the thrombin site may remain after cleavage; also called recombinant LRG1; soluble LRG1; not shown: Fc (human IgG), C-terminal, cleaved

Tests used:
[1] = target: B2; assay: solid-phase binding assay; LRG1 and recombinant extracellular domains of LPHN2 (and Lec/Olf of LPHN1, LPHN3); who was immobilised and conditions not told in the text shown; details: both partners purified
[2] = target: T1, LPHN2 Lec-Olf domains (F26-P394); assay: as above; details: both partners purified

Row | Binder | Kd [1] [nM] | Kd [2] [nM]
1 | B1 | 920 | –
2 | B2 | – | 890
